# Experimental data from publication PMC9036094, “Antigen-derived peptides engage the ER stress sensor IRE1α to curb dendritic cell cross-presentation” (The Journal of Cell Biology, 2022).
# “Also recorded” adds a separate entry of the source.
# B1: ovalbumin: classical protein antigen ovalbumin (Sigma-Aldrich) (protein)
# chain: MGSIGAASMEFCFDVFKELKVHHANENIFYCPIAIMSALAMVYLGAKDSTRTQINKVVRFDKLPGFGDSIEAQCGTSVNVHSSLRDILNQITKPNDVYSFSLASRLYAEERYPILPEYLQCVKELYRGGLEPINFQTAADQARELINSWVESQTNGIIRNVLQPSSVDSQTAMVLVNAIVFKGLWEKAFKDEDTQAMPFRVTEQESKPVQMMYQIGLFRVASMASEKMKILELPFASGTMSMLVLLPDEVSGLEQLESIINFEKLTEWTSSNVMEERKIKVYLPRMKMEEKYNLTSVLMAMGITDVFSSSANLSGISSAESLKISQAVHAAHAEINEAGREVVGSAEAGVDAASVSEEFRADHPFLFCIKHIATNAVLFFGRCVSP
# How the values were obtained:
# [1] = system: IRE1α (XBP1s, pIRE1α) in BMDCs; assay: IRE1α activation in BMDCs (immunoblot); format: cell-based, mouse
# Experimental: Figure 1. Antigen pulsing of BMDCs activates IRE1α. (A) BMDCs were pulsed with ovalbumin (starting at 62.5 μg/ml and sequentially doubled) and analyzed by immunoblot (IB) for the indicated markers. (B) BMDCs were pulsed with ovalbumin (starting at 500 μg/ml and sequentially halved) or […] (1 μM), or stimulated with tunicamycin (1 μg/ml) or poly-I:C (25 μg/ml) for 4 h, and analyzed by IB. (C) BMDCs were pulsed with ovalbumin (500 μg/ml) for indicated time points and analyzed by IB. (D) BMDCs were pulsed for 4 h with ovalbumin or lysates derived from the indicated cell lines (500 μg/ml protein) and analyzed by IB. […] (F) Upon removal from bone marrow, total bone marrow cells were transfected with non-targeting control (NTC) or TAP1-targeting gRNAs, along with CRISPR/Cas9 delivery constructs. Cells were then subjected to standard BMDC-differentiation protocol, pulsed with ovalbumin (500 μg/ml) for 4 h, and analyzed by IB. All IB images are representative of at least two similar experiments, and molecular weights represent kD. Source data are available for this figure: SourceData F1.
# For purification and differentiation of BMDCs, the femur and tibia bones of C57BL/6 mice were flushed with sterile PBS, and bone marrow cells were then cultured in RPMI1640 media as described above and further supplemented with […] β2-mercaptoethanol (Sigma-Aldrich), 20 ng/ml GM-CSF (BioLegend), and 10 ng/ml IL-4 (BioLegend) for 9 d, with media being replenished every 3 d. Where indicated, Flt3L-BMDCs were similarly generated using media supplemented with 200 ng/ml recombinant mouse Flt3L (PeproTech; [Brasel et al., 2000]). After 9 d of culture, BMDCs were routinely verified to be >90% CD11c^+ MHC-II^high by flow cytometry analysis.
# Thapsigargin (Sigma-Aldrich) was used at 100 nM, tunicamycin (Sigma-Aldrich) was used at 5 μg/ml, MG132 (Sigma-Aldrich) was used at 5 μM, Amiloride (Sigma-Aldrich) was used at 10 μM, actinomycin D (Sigma-Aldrich) was used at 4 μg/ml, LPS (Sigma-Aldrich) was used at 10 μg/ml, and poly-I:C (Sigma-Aldrich) was used at 25 μg/ml. Ovalbumin (Sigma-Aldrich), EF-OVA (EndoFit; InvivoGen), […] peptide (Sigma-Aldrich), and human CD4-Fc fusion protein (generated in-house at Genentech) were dissolved in PBS prior to pulsing and used at indicated concentrations.
# Cells were lysed in PBS solution supplemented with 1X radioimmunoprecipitation assay buffer (Millipore) and 2X Halt protease-phosphatase inhibitor cocktail (Thermo Fisher Scientific). Upon clearance, samples were analyzed by SDS-PAGE, electrotransferred to nitrocellulose membranes (Invitrogen), and blocked by 5% powdered milk in PBSt (PBS supplemented with 0.1% tween) solution. Development was conducted with ECL reagent (Thermo Fisher Scientific) and imaging was performed with the ChemiDoc ZRS+ imager (Bio-Rad). Antibodies used for Western blot analysis include IRE1α (3294, rabbit; Cell Signaling Technology), β-actin (5125, rabbit; Cell Signaling), GAPDH (97166, mouse; Cell Signaling), ATF6 (66563-1-Ig, mouse; ProteinTech), TAP1 (12341, rabbit; Cell Signaling), CHOP (2895, mouse; Cell Signaling), ATF4 (11815, rabbit; Cell Signaling), ovalbumin (P1-196, rabbit; Thermo Fisher Scientific), human Fc (ab977225, rabbit; Abcam), Myc tag (2272, rabbit; Cell Signaling), and biotin (5597, rabbit; Cell Signaling). IRE1α lumenal domain (mouse), XBP1s (rabbit), and pIRE1α (rabbit) antibodies were generated at Genentech. Secondary antibodies used were for mouse (715-035-150; The Jackson Laboratory) and rabbit (711-035-152; The Jackson Laboratory).
# [2] = system: IRE1α in mouse embryonic fibroblasts (MEFs); assay: IRE1α activation in MEFs (immunoblot); format: cell-based; conditions: ovalbumin, 4 h
# Experimental: Figure S1. Antigen pulsing of BMDCs activates IRE1α. (A) BMDCs were treated with MG132 (5 μM) or ovalbumin (500 μg/ml) for indicated time points and analyzed by IB. (B) BMDCs were pulsed with ovalbumin (500 μg/ml) and G9668 (3 μM) for indicated time periods and analyzed by IB. (C) Molecular structure, potency, and kinase selectivity of G9668. (D) Schematic representation of G9668 interaction with 220 kinases at 1 μM. Size and color of circles represent interaction strength. Analysis was conducted by KinomeScan. (E) BMDCs were pulsed for 4 h with APC-tagged ovalbumin or soluble CD4-Fc protein (500 μg/ml) with amiloride (10 μM); uptake of protein was assayed by flow cytometry (n = 3). (F) WT or MyD88 KO Flt3L-derived BMDCs were pulsed with ovalbumin (500 μg/ml) or soluble CD4-Fc protein (500 μg/ml), or treated with LPS (10 μg/ml) for 4 h and analyzed by IB. (G) MEFs and BMDCs were pulsed with ovalbumin or treated with Tg (100 nM) for 4 h and analyzed by IB. Images in A, B, F, and G represent at least two similar experiments, and molecular weights represent kD; E bar graphs represent mean ± SD from three independent biological repeats. Analysis for E was performed using unpaired, two-tailed t test; *, P ≤ 0.05; **, P ≤ 0.01. Source data are available for this figure: SourceData FS1. […]
molecule,measurement,setting,value
B1,time of peak IRE1α phosphorylation,"[1]; 4-h pulse, ovalbumin 500 μg/ml",2 h
same,time of peak XBP1s protein,"[1]; 4-h pulse, ovalbumin 500 μg/ml",2 to 4 h
same,IRE1α activation,"[1]; GM-CSF + IL-4 BMDCs, immunoblot for XBP1s/pIRE1α, in words",concentration- and time-dependent activation of IRE1α; also recorded: much weaker IRE1α activation than did the potent pharmacological ER-stressor tunicamycin; also recorded: only IRE1α exhibited substantial activation
same,"IRE1α activation, MEFs",[2],did not display detectable IRE1α activation
